Assay results published in PMC10171801.

Target: MAGI2 PDZ0-GK (mouse) (UniProt Q9WVQ1)
Test: ITC

UniProt Q9WVQ1, sequence (Q9WVQ1 9-238): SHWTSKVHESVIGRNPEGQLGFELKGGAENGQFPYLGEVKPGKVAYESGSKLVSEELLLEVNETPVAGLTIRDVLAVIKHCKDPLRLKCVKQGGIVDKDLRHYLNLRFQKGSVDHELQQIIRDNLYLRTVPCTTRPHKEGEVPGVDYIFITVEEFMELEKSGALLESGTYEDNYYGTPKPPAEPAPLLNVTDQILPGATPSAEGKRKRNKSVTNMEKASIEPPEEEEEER

Substance	Kd
pSAPAP1-GBR2(T+5F) (peptide)	70 nM
pSAPAP1-GBR2(E-1P) (peptide)	70 nM
